Series [1] deals with T1, CST (CTC1-STN1-TEN1) (human, UniProt Q2NKJ3;Q9H668;Q86WV5 1-1217;1-368;1-123). The experiment in a line: fluorescence anisotropy; 200 mM NaCl; FA: 200 mM NaCl, KCl or LiCl, 20 mM HEPES pH 7.4, 1 mM DTT, 22-25 C, 375 or 750 pM oligo, Kd,app +/- SEM; EMSA: 20 mM HEPES pH 7.4, 200 mM KCl, 1 nM 32P oligo. Particulars: protein: recombinant, tags: 2xFLAG N-term on CTC1, 6xHis N-term on STN1 and TEN1, copies: 1;1;1, label: 5' fluorescein. A general note: In fluorescence polarisation assays a small probe gives low polarisation when free and higher when bound to something large.

The target in series [2] is T2, RPA WT (RPA70-RPA32-RPA14) (human, UniProt P27694;P15927;P35244 1-616;1-270;1-121). The series is described as above. Particulars: protein: recombinant, tags: 6xHis N-term on RPA70 and RPA14, copies: 1;1;1, label: 5' fluorescein, linear in LiCl.
Series [3] has as its target T1, CST (CTC1-STN1-TEN1). The experiment in a line: fluorescence anisotropy; 200 mM LiCl; FA: 200 mM NaCl, KCl or LiCl, 20 mM HEPES pH 7.4, 1 mM DTT, 22-25 C, 375 or 750 pM oligo, Kd,app +/- SEM; EMSA: 20 mM HEPES pH 7.4, 200 mM KCl, 1 nM 32P oligo. The following applies: protein: recombinant, tags: 2xFLAG N-term on CTC1, 6xHis N-term on STN1 and TEN1, copies: 1;1;1, label: 5' fluorescein, linear in LiCl.

Series [4] concerns the target T2, RPA WT (RPA70-RPA32-RPA14). Described as above. The following applies: protein: recombinant, tags: 6xHis N-term on RPA70 and RPA14, copies: 1;1;1, label: 5' fluorescein, linear in LiCl.
In series [5] the target is T2, RPA WT (RPA70-RPA32-RPA14). The experiment in a line: fluorescence anisotropy; 200 mM KCl; FA: 200 mM NaCl, KCl or LiCl, 20 mM HEPES pH 7.4, 1 mM DTT, 22-25 C, 375 or 750 pM oligo, Kd,app +/- SEM; EMSA: 20 mM HEPES pH 7.4, 200 mM KCl, 1 nM 32P oligo. Particulars: protein: recombinant, tags: 6xHis N-term on RPA70 and RPA14, copies: 1;1;1, label: 5' fluorescein, linear in LiCl.

The target in series [6] is T1, CST (CTC1-STN1-TEN1). Described as above. The following applies: protein: recombinant, tags: 2xFLAG N-term on CTC1, 6xHis N-term on STN1 and TEN1, copies: 1;1;1, label: 5' fluorescein, linear in LiCl.
Setting [7] is: intramolecular G4 at 5' end, 18 nt 3' tail.
[8] abbreviates: intramolecular G4 at 3' end, 5' tail.
Where [9] appears, read: parallel G4 in KCl (predominantly unimolecular).

T1 sequence (Q2NKJ3 whole entry, chain 1 of 3): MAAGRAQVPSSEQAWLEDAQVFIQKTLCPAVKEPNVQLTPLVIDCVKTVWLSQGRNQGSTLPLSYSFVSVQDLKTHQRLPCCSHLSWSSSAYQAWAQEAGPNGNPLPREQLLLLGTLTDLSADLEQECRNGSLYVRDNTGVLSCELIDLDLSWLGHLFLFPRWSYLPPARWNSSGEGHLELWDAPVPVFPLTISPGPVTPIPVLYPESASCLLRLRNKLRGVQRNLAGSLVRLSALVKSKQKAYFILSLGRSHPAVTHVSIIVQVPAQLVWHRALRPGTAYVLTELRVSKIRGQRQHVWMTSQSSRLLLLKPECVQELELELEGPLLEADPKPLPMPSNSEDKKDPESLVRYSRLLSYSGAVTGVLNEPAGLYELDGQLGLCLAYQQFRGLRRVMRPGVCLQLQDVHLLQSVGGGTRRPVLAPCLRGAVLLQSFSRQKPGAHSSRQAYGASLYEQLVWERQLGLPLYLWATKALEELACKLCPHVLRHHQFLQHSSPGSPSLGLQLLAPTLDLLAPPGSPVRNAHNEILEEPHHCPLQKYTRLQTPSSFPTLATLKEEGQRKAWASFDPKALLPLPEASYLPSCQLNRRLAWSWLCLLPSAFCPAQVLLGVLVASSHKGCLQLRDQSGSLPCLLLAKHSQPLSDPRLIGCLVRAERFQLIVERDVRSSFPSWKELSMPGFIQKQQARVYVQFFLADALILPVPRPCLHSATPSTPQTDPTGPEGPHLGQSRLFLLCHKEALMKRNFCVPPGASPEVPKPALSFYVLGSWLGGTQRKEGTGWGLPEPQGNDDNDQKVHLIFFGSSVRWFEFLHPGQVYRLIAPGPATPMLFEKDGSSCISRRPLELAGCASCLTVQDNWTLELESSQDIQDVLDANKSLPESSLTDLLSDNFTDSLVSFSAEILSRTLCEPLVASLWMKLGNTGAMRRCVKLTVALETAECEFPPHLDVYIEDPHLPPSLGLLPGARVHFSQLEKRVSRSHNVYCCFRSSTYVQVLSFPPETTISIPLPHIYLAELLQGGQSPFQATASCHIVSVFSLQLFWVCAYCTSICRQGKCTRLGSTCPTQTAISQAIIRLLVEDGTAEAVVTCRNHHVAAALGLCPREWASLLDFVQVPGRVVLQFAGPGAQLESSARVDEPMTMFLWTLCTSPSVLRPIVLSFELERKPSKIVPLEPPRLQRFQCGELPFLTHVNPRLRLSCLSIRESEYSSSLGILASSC
T1 sequence (Q9H668 whole entry, chain 2 of 3): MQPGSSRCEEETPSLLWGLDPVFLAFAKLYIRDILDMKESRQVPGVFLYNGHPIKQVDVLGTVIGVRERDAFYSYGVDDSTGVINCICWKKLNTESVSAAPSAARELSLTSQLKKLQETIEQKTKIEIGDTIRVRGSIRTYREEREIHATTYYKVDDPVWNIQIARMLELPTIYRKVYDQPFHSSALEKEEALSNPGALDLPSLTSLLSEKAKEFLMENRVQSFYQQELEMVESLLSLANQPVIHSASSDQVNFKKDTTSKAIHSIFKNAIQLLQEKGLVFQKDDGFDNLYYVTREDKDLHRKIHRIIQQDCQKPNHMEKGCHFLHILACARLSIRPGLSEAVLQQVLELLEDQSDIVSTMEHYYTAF
T1 sequence (Q86WV5 whole entry, chain 3 of 3): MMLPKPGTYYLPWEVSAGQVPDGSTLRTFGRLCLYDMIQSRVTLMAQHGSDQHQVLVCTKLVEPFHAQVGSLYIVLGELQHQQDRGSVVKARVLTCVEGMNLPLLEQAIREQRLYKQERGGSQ
T2 sequence (P27694 whole entry, chain 1 of 3): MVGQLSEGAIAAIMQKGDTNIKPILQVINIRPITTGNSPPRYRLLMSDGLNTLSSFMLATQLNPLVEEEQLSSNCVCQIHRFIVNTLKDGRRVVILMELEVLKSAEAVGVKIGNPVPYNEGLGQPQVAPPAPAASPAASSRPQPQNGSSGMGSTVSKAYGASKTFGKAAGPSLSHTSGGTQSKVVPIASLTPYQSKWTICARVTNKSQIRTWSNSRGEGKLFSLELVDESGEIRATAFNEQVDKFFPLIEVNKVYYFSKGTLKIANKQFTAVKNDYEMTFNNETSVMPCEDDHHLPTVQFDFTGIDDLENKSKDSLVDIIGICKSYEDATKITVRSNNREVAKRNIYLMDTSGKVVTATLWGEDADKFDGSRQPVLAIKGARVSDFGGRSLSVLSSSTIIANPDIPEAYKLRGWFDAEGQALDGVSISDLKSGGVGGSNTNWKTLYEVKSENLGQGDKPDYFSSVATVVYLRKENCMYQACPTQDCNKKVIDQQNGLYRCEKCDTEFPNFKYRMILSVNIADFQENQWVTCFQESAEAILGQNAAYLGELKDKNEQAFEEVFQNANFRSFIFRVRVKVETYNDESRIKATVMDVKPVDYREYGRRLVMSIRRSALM
T2 sequence (P15927 whole entry, chain 2 of 3): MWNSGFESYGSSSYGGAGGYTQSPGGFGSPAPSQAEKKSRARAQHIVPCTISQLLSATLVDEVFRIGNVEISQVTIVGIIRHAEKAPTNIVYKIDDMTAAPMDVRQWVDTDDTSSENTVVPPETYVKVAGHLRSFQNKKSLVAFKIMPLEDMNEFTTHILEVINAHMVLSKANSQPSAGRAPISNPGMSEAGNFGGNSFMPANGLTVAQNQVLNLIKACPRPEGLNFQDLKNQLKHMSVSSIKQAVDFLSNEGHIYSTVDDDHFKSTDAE
T2 sequence (P35244 whole entry, chain 3 of 3): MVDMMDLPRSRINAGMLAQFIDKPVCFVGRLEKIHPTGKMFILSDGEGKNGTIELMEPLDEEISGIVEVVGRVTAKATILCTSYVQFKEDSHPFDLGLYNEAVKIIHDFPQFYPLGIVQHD

AGGGTTAGGGTTAGGGTTAGGGTGAGTGTGAGTGTGAGTG (structured_DNA) [Tel40 5' G4]: the Kd was 1.47 ± 0.23 nM with CST (CTC1-STN1-TEN1) [1] (intramolecular G4 at 5' end, 18 nt 3' tail, linear in LiCl); 0.78 ± 0.08 nM in series [2] (setting [7]); 1.53 ± 0.17 nM with CST (CTC1-STN1-TEN1) [3] (setting [7]); 0.82 ± 0.15 nM in series [4] (setting [7]); 0.85 ± 0.21 nM in series [5] (setting [7]).

As for AGTGTGAGTGTGAGTGTTAGGGTTAGGGTTAGGGTTAGGG (structured_DNA) [Tel40 3' G4], the Kd in the series with CST (CTC1-STN1-TEN1) [1] (intramolecular G4 at 3' end, 5' tail, linear in LiCl) came out at 2.3 ± 0.4 nM; in series [2] (setting [8]), 0.4 ± 0.08 nM; with CST (CTC1-STN1-TEN1) [3] (setting [8]) it was 1.09 ± 0.1 nM; in series [4] (setting [8]), 0.68 ± 0.16 nM; with CST (CTC1-STN1-TEN1) [6] (setting [8]), 3.4 ± 0.5 nM; in series [5] (setting [8]), 0.52 ± 0.11 nM.

Turning to TAGGGTTAGGGTTAGGGTTAGGGTT (structured_DNA) [2JSL], in the series with CST (CTC1-STN1-TEN1) [3] (hybrid 2 G4 in KCl), the Kd worked out at 8.3 ± 0.6 nM.

Consider AGGGCTAGGGCTAGGGCTAGGG (structured_DNA) [2KM3], for which, in the series with CST (CTC1-STN1-TEN1) [3] (antiparallel G4 in KCl), the Kd came to 4.5 ± 0.3 nM.

TAGGGAGGGTAGGGAGGGT (structured_DNA) [2LBY]: the results for the Kd in the series with CST (CTC1-STN1-TEN1) [3] (parallel G4 in KCl) and in the series with CST (CTC1-STN1-TEN1) [6] (parallel G4 in KCl) were 11.5 ± 1.3 nM and 26.5 ± 1.5 nM, respectively.

For CCCTAACCCTAACCCTAACCCT (ssDNA) [C22], the Kd with CST (CTC1-STN1-TEN1) [1] (linear) worked out at 184 ± 28 nM.

Regarding CGGGGCGGGCCTTGGGCGGGGT (structured_DNA) [2M27], the figures for the Kd in the series with CST (CTC1-STN1-TEN1) [3] (setting [9]) and with CST (CTC1-STN1-TEN1) [6] (setting [9]) were 10.8 ± 0.2 nM and 13.3 ± 0.9 nM, respectively.

Take TTGGGTTAGGGTTAGGGTTAGGGA (structured_DNA) [2GKU]: in the series with CST (CTC1-STN1-TEN1) [3] (hybrid 1 G4 in KCl), the Kd came out at 11.9 ± 1.2 nM.

For the molecule AGTGTGAGTTAGGGTTAGGGTTAGGGTTAGGGTGAGTGTG (structured_DNA) [Tel40 Middle G4], the Kd with CST (CTC1-STN1-TEN1) [1] (intramolecular G4 in middle, linear in LiCl) amounted to 1.04 ± 0.21 nM; in series [2] (intramolecular G4 in middle), 0.28 ± 0.03 nM; with CST (CTC1-STN1-TEN1) [3] (intramolecular G4 in middle) it was 1.94 ± 0.16 nM; in series [4] (intramolecular G4 in middle), 0.61 ± 0.13 nM; in the series with CST (CTC1-STN1-TEN1) [6] (intramolecular G4 in middle), 4.4 ± 0.3 nM; in series [5] (intramolecular G4 in middle), 0.46 ± 0.05 nM.

Consider GGGTAGGGAGCGGGAGAGGG (structured_DNA) [6GZN], for which the Kd with CST (CTC1-STN1-TEN1) [3] (antiparallel G4 in KCl) turned out to be 1.1 ± 0.3 nM.

The values are drawn from article PMC10250233, “RPA engages telomeric G-quadruplexes more effectively than CST”.
